How the values were obtained:
Type in all cases: biochemical, Alternaria alternata
[1] = tested on: CCC(O)(CC(=O)O)C(=O)O; assay: UPLC-MS quantification of 3EMA formed; conditions: 250 mM potassium phosphate pH 7.0, 30 °C
[2] = tested on: CCC(C(=O)O)C(O)C(=O)O; assay: UPLC-MS quantification of OVA formed; conditions: 1 mM NAD+, 5 mM MnCl2, 1 mM DTT, MOPS-KCl pH 7.5, 30 °C
[3] = tested on: CCC(=O)C(=O)O; assay: UPLC-MS quantification of 2EMA formed; conditions: 1 mM acetyl-CoA, 10 mM MgCl2, potassium phosphate pH 7.5, 30 °C

With IPMDH (Alternaria alternata) the Km [1] was 786.26 µM.
Work on ISMD (Alternaria alternata) yielded a Km [2] of 87.20 µM.
IPMS (Alternaria alternata) showed a Km [3] of 164.36 µM.

From paper PMC12140367, “Discovery, Herbicidal Activity and Biosynthesis of a Novel Natural Tetramic Acid from Alternaria Species” (Advanced Science, 2025)
